B1: S279_0004 (designed binder, not shown: small tags and cut ends; large carriers)
chain: EWGYASHNGPDHWHELFPNAKGENQSPIELHTKDIRHDPSLQPWSVSYDGGSAKTILNNGKTLGVVFDDTYDRSMLRGGPLPGPYRLREFHLHWGSSDDHGSEHTVDGVKYAAELHLLHWNPKYNTFKEALKQRDGLAVIGIFLKIGHENGEFQIFLDALDKIKTKGKEAPFTKFDPSSLFPASRDYWTYQGSMTIPPLMEAVVWLLLKEPMTVSSDQMAKLRSLLSSAENEPPVPLVSNWRPPQPINNRVVRASFK
B2: Synthetic binder, S279_0004 (designed binder)
chain: B1 chain

Legend:
[1] = molecular target: biotinylated peptide M64-P1-P2-ΔK-(PEG9)(PEG9)-K(Biotin) with P1 = V; experiment: BLI, biotinylated peptide on streptavidin tips, binder in solution
[2] = molecular target: biotinylated peptide M64-P1-P2-ΔK-(PEG9)(PEG9)-K(Biotin) with P1 = T; experiment: as above

Row | Kd [1] [nM] | Kd [2] [nM] | koff [2] [s⁻¹] | kon [2] [M⁻¹ s⁻¹] | koff [1] [s⁻¹] | kon [1] [M⁻¹ s⁻¹] | Binder
1 | < 350 | – | – | – | – | – | B1
2 | 20 | 488 | 0.0111 | 23300 | 0.000473 | 23700 | B2
